“And” between values parts separate entries of the source, which are not always exact repeats. Equal entries are not always repeated.
Target: purified EV71 virus-like particles (purified antigen solution of Example 5) (EV71 (enterovirus 71), C4a subtype) (UniProt B9VUU3)
Experiment: indirect ELISA, VLP coated 1 ug/ml, control serum

Question: Negative serum was tested. Which OD450nm did it give?
Answer: 0.049 OD and 0.051 OD
